Each block holds one binder with its values, some of them ahead of it. Bridge positions count the residues as written; N and C are the ends. Square brackets hold non-standard residues; d marks the D form. Side chains are listed from the residue outwards. * marks the point of attachment. Biotin = O=C1N[C@H]2[C@H](CS[C@H]2CCCCC(=O)*)N1; pGlu = O=C1CC[C@@H](C(=O)O)N1; Nle = CCCC[C@H](N)C(=O)O; PEG = not defined here
Legend:
[1] = target: T1, chemokine (C-C motif) receptor 5 (CCR5) (human, UniProt P51681 1-352); test: cell-based or functional assay
T1 sequence (P51681 whole entry): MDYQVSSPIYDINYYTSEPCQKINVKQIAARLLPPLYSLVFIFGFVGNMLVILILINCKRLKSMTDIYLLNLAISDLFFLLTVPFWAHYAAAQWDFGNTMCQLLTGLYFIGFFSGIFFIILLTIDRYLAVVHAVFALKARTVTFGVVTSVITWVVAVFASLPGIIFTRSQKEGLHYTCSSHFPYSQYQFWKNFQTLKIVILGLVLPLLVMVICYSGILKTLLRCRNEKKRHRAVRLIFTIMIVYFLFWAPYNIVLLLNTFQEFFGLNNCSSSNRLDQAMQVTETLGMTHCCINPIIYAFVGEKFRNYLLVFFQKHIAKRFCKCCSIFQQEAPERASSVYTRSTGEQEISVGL

[2] = target: T1, chemokine (C-C motif) receptor 5 (CCR5); test: blood passed through chemokine-coupled column; flow cytometry before and after
[3] = target: T2, chemokine (C-C motif) receptor 1 (CCR1) (human, UniProt P32246 1-355); test: as above
T2 construct: whole, on cells
T2 sequence (looked up): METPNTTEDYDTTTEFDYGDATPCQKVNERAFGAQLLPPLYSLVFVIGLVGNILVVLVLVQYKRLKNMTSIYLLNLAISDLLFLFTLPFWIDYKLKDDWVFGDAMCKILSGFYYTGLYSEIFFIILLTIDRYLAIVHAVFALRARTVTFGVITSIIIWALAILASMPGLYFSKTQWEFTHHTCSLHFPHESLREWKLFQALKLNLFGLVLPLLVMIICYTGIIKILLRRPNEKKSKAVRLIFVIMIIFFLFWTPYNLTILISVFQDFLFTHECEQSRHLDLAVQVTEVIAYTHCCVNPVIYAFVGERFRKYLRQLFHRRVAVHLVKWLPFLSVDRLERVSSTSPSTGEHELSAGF

hCCR2b = target: T3, hCCR2b (human, UniProt P41597 1-374); test: cell-based or functional assay
T3 chain: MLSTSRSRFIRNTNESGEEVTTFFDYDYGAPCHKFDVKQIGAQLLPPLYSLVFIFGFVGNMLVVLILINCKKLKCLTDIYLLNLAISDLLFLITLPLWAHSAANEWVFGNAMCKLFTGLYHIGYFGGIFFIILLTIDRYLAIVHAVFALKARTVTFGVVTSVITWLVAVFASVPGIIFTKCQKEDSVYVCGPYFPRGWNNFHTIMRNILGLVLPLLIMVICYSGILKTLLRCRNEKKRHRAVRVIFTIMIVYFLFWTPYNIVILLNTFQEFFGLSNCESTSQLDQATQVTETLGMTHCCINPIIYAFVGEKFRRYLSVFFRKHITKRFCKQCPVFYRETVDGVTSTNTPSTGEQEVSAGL

[4] = target: T4, chemokine (C-C motif) receptor 9 (CCR9) (human, UniProt P51686 1-369); test: flow cytometry; labelled chemokine on fixed blood leukocytes
T4 construct: whole, on cells; also called hCCR9; TECK receptor
T4 sequence (looked up): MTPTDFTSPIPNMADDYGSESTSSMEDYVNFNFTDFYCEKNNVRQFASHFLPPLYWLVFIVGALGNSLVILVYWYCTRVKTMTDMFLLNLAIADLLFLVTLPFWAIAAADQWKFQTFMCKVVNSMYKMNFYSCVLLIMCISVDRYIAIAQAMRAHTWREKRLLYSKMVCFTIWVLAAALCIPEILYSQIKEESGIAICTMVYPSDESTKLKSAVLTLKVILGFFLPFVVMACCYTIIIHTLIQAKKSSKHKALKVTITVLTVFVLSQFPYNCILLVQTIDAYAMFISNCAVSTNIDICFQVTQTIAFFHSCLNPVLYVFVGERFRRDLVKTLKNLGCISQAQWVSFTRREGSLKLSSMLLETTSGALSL

[5] = target: T5, chemokine (C-C motif) receptor 4 (CCR4) (human, UniProt P51679 1-360); test: cell-based or functional assay
T5 sequence (looked up): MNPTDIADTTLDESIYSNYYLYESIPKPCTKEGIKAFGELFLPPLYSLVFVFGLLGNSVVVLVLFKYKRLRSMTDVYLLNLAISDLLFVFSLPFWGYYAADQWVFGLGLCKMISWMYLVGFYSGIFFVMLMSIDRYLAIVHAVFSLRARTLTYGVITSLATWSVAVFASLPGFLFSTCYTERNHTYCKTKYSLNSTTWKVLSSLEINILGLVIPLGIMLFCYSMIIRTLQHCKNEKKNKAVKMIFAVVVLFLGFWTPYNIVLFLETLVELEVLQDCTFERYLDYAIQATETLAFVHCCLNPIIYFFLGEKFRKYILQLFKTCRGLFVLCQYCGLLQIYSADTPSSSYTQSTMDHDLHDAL

[6] = target: T6, chemokine (C-C motif) receptor 7 (CCR7) (human, UniProt P32248 25-378); test: cell-based or functional assay
T6 sequence (looked up): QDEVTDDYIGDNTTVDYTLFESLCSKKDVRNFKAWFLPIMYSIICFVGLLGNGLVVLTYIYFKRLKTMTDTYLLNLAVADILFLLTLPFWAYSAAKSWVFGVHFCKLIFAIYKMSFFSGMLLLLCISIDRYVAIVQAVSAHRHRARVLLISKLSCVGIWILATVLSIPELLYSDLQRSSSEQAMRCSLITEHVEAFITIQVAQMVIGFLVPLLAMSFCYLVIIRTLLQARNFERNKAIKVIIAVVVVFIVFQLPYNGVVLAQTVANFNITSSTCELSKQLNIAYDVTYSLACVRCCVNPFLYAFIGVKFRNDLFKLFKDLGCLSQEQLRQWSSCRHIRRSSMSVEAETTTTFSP

[7] = target: T7, chemokine (C-C motif) receptor 3 (CCR3) (human, UniProt P51677 1-355); test: flow cytometry; eotaxin binding compared with anti-CCR3 staining of neutrophils/eosinophils
T7 construct: whole, on cells; also called hCCR3
T7 sequence (looked up): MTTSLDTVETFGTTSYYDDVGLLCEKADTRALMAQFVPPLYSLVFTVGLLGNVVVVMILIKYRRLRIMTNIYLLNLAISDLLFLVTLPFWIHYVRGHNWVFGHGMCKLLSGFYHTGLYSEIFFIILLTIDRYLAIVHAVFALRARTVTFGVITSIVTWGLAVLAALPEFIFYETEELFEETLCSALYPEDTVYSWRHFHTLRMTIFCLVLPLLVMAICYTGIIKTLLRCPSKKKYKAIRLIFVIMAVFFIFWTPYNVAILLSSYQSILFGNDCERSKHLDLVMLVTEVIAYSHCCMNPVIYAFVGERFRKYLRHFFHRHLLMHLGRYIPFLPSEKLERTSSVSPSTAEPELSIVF

[8] = target: T4, chemokine (C-C motif) receptor 9 (CCR9); test: cell-based or functional assay

B3: Biotinylated CCL25 (Almac Sciences) (ligand, UniProt O15444 24-97, looked up)
chain: QGVFEDCCLAYHYPIGWAVLRRAWTYRIQEVSGSCNLPAAIFYLPKRHRKVCGNPKSREVQRAMKLLDARNKVF
modifications: biotinylated (site not stated); for the flow cytometry tests also Alexa647 Fluor labeled
notes: also called biotinylated and Alexa647 Fluor labeled CCL25; CCL25-coated sepharose beads
percent of CD4+ lymphocytes bound (Crohn's patient) [4]: ~90%
percent of CD8+ lymphocytes bound (Crohn's patient) [4]: ~80%
percent of monocytes bound (Crohn's patient) [4]: ~90%

B5: biotinMIP-3b (CCL19): MIP-3b derivatised at Lys(78) with Biotin (ligand)
chain: GTNDAEDCCLSVTQKPIPGYIVRNFHYLLIKDGCRVPAVVFTTLRGRQLCAPPDQPWVERIIQRLQRTSAKMKRRSSX
modifications: X78 = K(Biotin), an additional C-terminal lysine; C-terminal amide
EC50 (agonist activity, Aequorin assay) [6]: 11 nM

B7: biotinTECK (Met to Nleu substitution): TECK derivatised at the epsilon-amino side chain of Lys72 with PEG-Biotin (ligand)
chain: [pGlu]GVFEDCCLAYHYPIGWAVLRRAWTYRIQEVSGSCNLPAAIFYLPKRHRKVCGNPKSREVQRA[Nle]KLLDARNK([PEG-Biotin])VF-OH
modifications: disulfide 7-35, 8-52; reading uncertain
EC50 (agonist activity, Aequorin assay) [8]: 63.6 nM

Further lines, results first:

EC50 (agonist activity, Aequorin assay) [1]: 0.5 nM
percent reduction of chemokine receptor-expressing cells (CCR1, 3 or 5, not told apart) [2]: ~20%
percent reduction of chemokine receptor-expressing cells (CCR1, 3 or 5, not told apart) [3]: ~20%
B1: biotinRANTES (CCL5): RANTES derivatised at Lys(67) with Biotin (ligand)
chain: SPYSSDTTPCCFAYIARPLPRAHIKEYFYTSGKCSNPAVVFVTRKNRQVCANPEKKWVREYINSLEK(Biotin)S-OH
modifications: disulfide 10-34, 11-50
notes: also called bRANTES; biotinylated RANTES

EC50 (partial agonist, Aequorin assay) (hCCR2b): 23.5 nM
B2: recombinant native MCP-2 (ligand, UniProt P80075 24-99, looked up)
chain: QPDSVSIPITCCFNVINRKIPIQRLESYTRITNIQCPKEAVIFKTKRGKEVCADPKERWVRDSMKHLDQIFQNLKP

EC50 (agonist activity, Aequorin assay) [5]: 4.5 nM
B4: biotinMDC (CCL22): MDC derivatised at Lys(66) with PEG-Biotin (ligand)
chain: GPYGANMEDSVCCRDYVRYRLPLRVVKHFYWTSDSCPRPGVVLLTFRDKEICADPRVPWVKMILNK([PEG-Biotin])LSQ-NH2
modifications: disulfide 12-36, 13-52; reading uncertain

binding result [7]: binds
B6: biotinylated and Alexa647 Fluor labeled eotaxin (Almac Sciences) (ligand)
chain: not shown
modifications: biotinylated and Alexa647 Fluor labeled (sites not given)
